In the experiment the target is p53 (UniProt P04637). The experiment can be described thus: cell-based or functional assay.
Chain of p53 (P04637 whole entry): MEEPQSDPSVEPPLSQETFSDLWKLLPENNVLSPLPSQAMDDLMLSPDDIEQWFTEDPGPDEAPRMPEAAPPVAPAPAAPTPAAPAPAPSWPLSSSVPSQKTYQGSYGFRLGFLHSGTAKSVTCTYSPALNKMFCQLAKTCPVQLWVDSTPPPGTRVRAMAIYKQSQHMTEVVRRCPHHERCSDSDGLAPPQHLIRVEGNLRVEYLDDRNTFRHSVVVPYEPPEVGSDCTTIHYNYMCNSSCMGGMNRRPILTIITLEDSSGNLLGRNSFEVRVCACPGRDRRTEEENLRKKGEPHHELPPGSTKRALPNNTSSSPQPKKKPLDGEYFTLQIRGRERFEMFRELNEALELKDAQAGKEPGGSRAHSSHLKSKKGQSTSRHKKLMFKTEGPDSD

Substance “Kaposi's sarcoma-associated herpesvirus latency-associated nuclear antigen 2 (LANA2) (from UniProt F5HIC6 1-566)” returned an inhibition of doxorubicin-induced (endogenous p53) activation of the pG13-Luc reporter in U2OS cells of 57%; an inhibition of p53 activation of the pG13-Luc reporter in SAOS-2 cells of 87%; a subdiploid (apoptotic) fraction of SAOS-2 cells expressing p53 with LANA2, propidium iodide flow cytometry of 10.8%.

The values above are taken from patent publication US6866854.
